In doi:10.1101/2023.08.20.554024, “Structural framework for the understanding spectroscopic and functional signatures of the cyanobacterial Orange Carotenoid Protein families” (bioRxiv, 2023):

What was measured:
GcapOCP2(ECH) = GcapOCP2(ECH) (Gloeocapsa sp. PCC 7428); experiment: cell-based or functional assay
ΔNTE-SynOCP1(ECH) = biological target: T1, ΔNTE-SynOCP1(ECH) (Synechocystis sp. PCC 6803, UniProt P74102 13-317); experiment: SEC; 10 μM OCP and 20 μM FRP pre-incubated in SEC buffer (20 mM Tris-HCl pH 7.6, 150 mM NaCl) for 15 min at room temperature; Superdex 200 Increase 5/150, 0.45 ml/min; profiles at 280 or 460 (or 500) nm, compared with algebraic sums of the single profiles; conditions: both partners purified
T1 construct: Orange Carotenoid Protein (OCP1), Synechocystis sp; PCC 6803, Uniprot P74102, lacking residues Met1-Phe12 (the N-terminal extension); also called ΔNTE mutant of SynOCP1; ΔNTE-SynOCP1 holoform; source: obtained earlier [24]
T1 sequence (looked up): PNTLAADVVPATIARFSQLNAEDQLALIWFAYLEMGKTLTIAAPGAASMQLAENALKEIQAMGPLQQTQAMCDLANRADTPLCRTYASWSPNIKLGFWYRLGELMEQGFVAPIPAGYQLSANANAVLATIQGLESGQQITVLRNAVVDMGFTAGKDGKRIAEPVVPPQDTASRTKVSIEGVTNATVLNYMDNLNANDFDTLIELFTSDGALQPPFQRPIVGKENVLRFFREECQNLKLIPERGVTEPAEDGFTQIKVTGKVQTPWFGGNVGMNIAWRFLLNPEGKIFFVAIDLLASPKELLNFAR

B1: Fluorescence Recovery Protein from Synechocystis sp. PCC 6803 (natural protein, UniProt P74103 1-109, looked up)
chain: MLQTAEAPWSQAETQSAHALFRKAYQRELDGLLATVQAQASQITQIDDLWKLHDFLSAKRHEIDGKYDDRQSVIIFVFAQLLKEGLVQAEELTFLAADKQSKIKALARL
notes: Fluorescence Recovery Protein (FRP), Synechocystis sp; PCC 6803, Uniprot P74103; also called SynFRP; FRP; source: obtained in previous works [24,30] as electrophoretically homogeneous preparation devoid of tags
GcapOCP2(ECH)
  τ1/2 of the R-O transition of GcapOCP2 (OD550 after switching off blue LED) with a two-fold molar excess of SynFRP, 5-23 °C (203 to 250 s at 5°C, 12 to 16 s at 20°C): 250 s
ΔNTE-SynOCP1(ECH)
  binding result: binds
